The values below come from patent US20150166606A1 (RA PHARMACEUTICALS, published 2015).

Read-outs that look alike come from different tables or passages of the source. Numbered stars: 1 amine (or outer) side, 2 acyl side, 3 side chain; on linkers, the order of the positions; unused ones are H or OH. Bridge positions count the residues as written; N and C are the ends. Square brackets hold non-standard residues; d marks the D form. Primed or numbered codes have the meaning given here. Ends that are not written are not given here. * marks the point of attachment. N‑ω hexylcarbamate = hexyl carbamate on the ω-nitrogen of the arginine side chain, CCCCCCOC(=O)*; ABP = 2-amino-3-(5-bromothiophen-2-yl)propanoic acid, O=C([C@H](Cc1ccc(Br)s1)N[*:1])[*:2]; mXylyl = xylyl linker from dibromoxylene joining the two cysteines; 4‑BZA = 2-amino-3-(4-carbamimidoylphenyl)propanoic acid; Trp(5-Cl) = N[C@@H](Cc1c[nH]c2ccc(Cl)cc12)C(=O)O; des‑NH2 = missing amino-terminal amine group; Phe(3-Cl) = N[C@@H](Cc1cccc(Cl)c1)C(=O)O; Phe(4-Cl) = N[C@@H](Cc1ccc(Cl)cc1)C(=O)O; Phe(4-amidino)′ = not defined here; Igl = N[C@H](C(=O)O)C1Cc2ccccc2C1; NMeR = CN[C@@H](CCCNC(=N)N)C(=O)O; NMeI = CC[C@H](C)[C@H](NC)C(=O)O; BODIPY‑TMR = fluorescent label; Phg(2-OMe)′ = not defined here; dPhg = N[C@@H](C(=O)O)c1ccccc1; Chg = N[C@H](C(=O)O)C1CCCCC1; Phg = N[C@H](C(=O)O)c1ccccc1; Tle = CC(C)(C)[C@H](N)C(=O)O; αMeP = C[C@@]1(C(=O)O)CCCN1; 2‑APY = not defined here; Aze = O=C(O)[C@@H]1CCN1; Dab = NCC[C@H](N)C(=O)O; Thp = NC1(C(=O)O)CCOCC1; Aib = CC(C)(N)C(=O)O; Mpa = O=C(O)CCS

For experiment [1], the target named is T1, Activated human plasma kallikrein (Enzyme Research Laboratories, HPKa 1303) (human, UniProt P03952 20-638). Briefly: cell-based or functional assay.
For experiment [2], the target named is T1, Activated human plasma kallikrein …. Briefly: cell-based or functional assay. The source holds these as a separate data set.

T1 sequence (P03952 20-638 limits assumed): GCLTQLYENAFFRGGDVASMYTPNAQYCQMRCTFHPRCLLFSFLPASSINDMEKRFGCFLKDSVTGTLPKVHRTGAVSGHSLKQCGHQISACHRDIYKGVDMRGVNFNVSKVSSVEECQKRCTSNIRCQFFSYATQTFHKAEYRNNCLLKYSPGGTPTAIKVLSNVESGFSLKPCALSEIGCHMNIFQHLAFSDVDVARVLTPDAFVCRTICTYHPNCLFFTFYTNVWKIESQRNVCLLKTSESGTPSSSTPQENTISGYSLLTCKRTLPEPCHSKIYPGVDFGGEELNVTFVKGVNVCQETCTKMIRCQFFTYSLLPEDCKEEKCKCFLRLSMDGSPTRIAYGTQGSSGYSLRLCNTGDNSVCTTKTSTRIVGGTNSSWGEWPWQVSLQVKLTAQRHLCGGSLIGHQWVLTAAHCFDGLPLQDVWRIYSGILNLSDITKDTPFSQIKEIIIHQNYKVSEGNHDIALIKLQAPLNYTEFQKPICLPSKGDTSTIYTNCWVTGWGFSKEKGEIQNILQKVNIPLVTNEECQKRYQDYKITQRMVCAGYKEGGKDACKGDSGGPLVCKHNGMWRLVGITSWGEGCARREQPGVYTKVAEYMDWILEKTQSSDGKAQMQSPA

With {des‑NH2}-CE[Chg]CR[Tle]-NH2 (linker 1-4 via mXylyl) [R2201], the “Avg. IC50” value in experiment [1] amounted to 7 nM.

With MCNYWSPWTECSA-NH2 (linker 2-11 via mXylyl) [R2108], in experiment [2], the “Avg. IC50” value stood at 4.1 nM.

{des‑NH2}-CP[Phg]C-{4‑(aminomethyl)benzimidamide} (linker 1-4 via mXylyl) [R2221]: in experiment [1], the “Avg. IC50” value was determined as 401 nM.

In the case of {des‑NH2}-CP[Phg]C[Phe(3-Cl)][Tle]-NH2 (linker 1-4 via mXylyl) [R2207], the “Avg. IC50” value in experiment [1] is > 75000 nM.

For {des‑NH2}-CP[dPhg]C[Trp(5-Cl)][Tle]-NH2 (linker 1-4 via mXylyl) [R2210], the “Avg. IC50” value in experiment [1] is > 75000 nM.

Consider {BODIPY‑TMR}-MCESICRV-NH2 (linker 2-6 via mXylyl) [R2193], for which the “Avg. IC50” value in experiment [1] worked out at 205 nM.

For the molecule [Mpa][Aib]A[Chg]CR[Tle]LRYSE-NH2 (linker 1-5 via mXylyl) [R2190], in experiment [1], the “Avg. IC50” value turned out to be 0.511 nM.

For the molecule {des‑NH2}-CP[Phg]CR[Tle]L-OH (linker 1-4 via mXylyl) [R2202], the “Avg. IC50” value in experiment [1] was determined as 58.8 nM.

On to {des‑NH2}-CP[dPhg]C[Phe(4-Cl)][Tle]-NH2 (linker 1-4 via mXylyl) [R2206], for which, in experiment [1], the “Avg. IC50” value is > 75000 nM.

Turning to {des‑NH2}-CP[dPhg]C[Phe(3-Cl)][Tle]-NH2 (linker 1-4 via mXylyl) [R2208], the “Avg. IC50” value in experiment [1] is > 75000 nM.

For the molecule {des‑NH2}-CP[Chg]C[2‑amino‑4‑(6-aminopyridin-3-yl)butanoic acid]V-NH2 (linker 1-4 via mXylyl; not fully specified (residue 1)) [R2203], the “Avg. IC50” value in experiment [1] is > 10000 nM.

Turning to {des‑NH2}-CP[Chg]CR[Tle]-OH (linker 1-4 via mXylyl) [R2214], the “Avg. IC50” value in experiment [1] amounted to 4000 nM.

Take {des‑NH2}-CP[dPhg]CR[Tle]-NH2 (linker 1-4 via mXylyl) [R2187]: the “Avg. IC50” value in experiment [1] is > 4700 nM.

B1: R2220 (peptide)
peptide: {des‑NH2}-CP[dPhg]C[ABP][Tle]-NH2
modifications: bridge 1-4; not fully specified (residue 1, bridges); printed as [mXylyl(1,4)](des-NH2)C-P-(D-Phg)-C-ABP-Tbg-NH2
In the case of B1, the “Avg. IC50” value in experiment [1] is > 100000 nM.

Regarding {des‑NH2}-C[αMeP][Phg]CR[Tle]-NH2 (linker 1-4 via mXylyl) [R2199], in experiment [1], the “Avg. IC50” value was 0.54 nM.

{des‑NH2}-CP[Phg(2-OMe)′]CR[Tle]-NH2 (linker 1-4 via mXylyl) [R2189]: the “Avg. IC50” value in experiment [1] came out at 39.8 nM.

B2: R2219 (peptide)
peptide: {des‑NH2}-CP[Phg]C[ABP][Tle]-NH2
modifications: bridge 1-4; not fully specified (residue 1, bridges); printed as [mXylyl(1,4)(des-NH2)C-P-Phg-C-ABP-Tbg-NH2
Take B2: in experiment [1], the “Avg. IC50” value was > 100000 nM.

With {des‑NH2}-CP[Chg]CR-OH (linker 1-4 via mXylyl) [R2195], the “Avg. IC50” value in experiment [1] was > 175000 nM.

With {des‑NH2}-CP[αMePhg]CR[Tle]-NH2 (linker 1-4 via mXylyl) [R2192], the “Avg. IC50” value in experiment [1] came to 851 nM.

{des‑NH2}-CP[Chg]CRV-OH (linker 1-4 via mXylyl) [R2183]: in experiment [1], the “Avg. IC50” value was > 3500 nM.

Turning to Ac-NYWSPWT-NH2 [R2106], in experiment [2], the “Avg. IC50” value was 374 nM.

Consider [Mpa][Aze][Chg]CR[Tle]-NH2 (linker 1-4 via mXylyl) [R2194], for which the “Avg. IC50” value in experiment [1] was 127 nM.

As to {des‑NH2}-CP[Phg]C[Phe(4-amidino)′]V-NH2 (linker 1-4 via mXylyl) [R2215], the “Avg. IC50” value in experiment [1] was 6390 nM.

B3: R2211 (peptide)
peptide: {des‑NH2}-CP[Phg]C[Dab][Tle]-NH2
modifications: linker 1-4 via mXylyl; not fully specified (residue 1); printed as [mXylyl(1,4)](des-NH2)C-P-Phg-C-Dab-Tbg-NH2
On to B3, for which the “Avg. IC50” value in experiment [1] was > 75000 nM.

In the case of [Mpa][Thp]A[Chg]C[4‑BZA](N‑hexylcarbamate)V-NH2 (linker 1-5 via mXylyl) [R2185], the “Avg. IC50” value in experiment [1] was > 100000 nM.

For {des‑NH2}-CP[dPhg]CR[Tle]L[NMeR]YSE-NH2 (linker 1-4 via mXylyl) [R2217], the “Avg. IC50” value in experiment [1] was found to be 114 nM.

Take {des‑NH2}-CP[Chg]CR(N‑ω hexylcarbamate)[Tle]-NH2 (linker 1-4 via mXylyl) [R2186]: in experiment [1], the “Avg. IC50” value was > 100000 nM.

With {des‑NH2}-CP[Phg]CR[Tle]-NH2 (linker 1-4 via mXylyl) [R2188], the “Avg. IC50” value in experiment [1] amounted to 3.4 nM.

As for [Mpa][Aib]A[Chg]CR[Tle]LRYSE(PEG 40 kDa)-NH2 (linker 1-5 via mXylyl) [R2191], the “Avg. IC50” value in experiment [1] came out at 5.5 nM.

B4: R2212 (peptide)
peptide: {des‑NH2}-CP[dPhg]C[Dab][Tle]-NH2
modifications: bridge 1-4; not fully specified (residue 1, bridges); printed as [mXylyl(1,4)](des-NH2)C-P-(D-Phg)-C-Dab-Tbg-NH2
For the molecule B4, in experiment [1], the “Avg. IC50” value is > 100000 nM.

On to {des‑NH2}-CS[NMeI]CR[Tle]-NH2 (linker 1-4 via mXylyl) [R2204], for which, in experiment [1], the “Avg. IC50” value is > 25000 nM.

Regarding {des‑NH2}-CP[Phg]C[Phe(4-Cl)][Tle]-NH2 (linker 1-4 via mXylyl) [R2205], the “Avg. IC50” value in experiment [1] was > 75000 nM.

B5: R2198 (peptide)
peptide: [Mpa]P[Chg]C[2‑APY][Tle]-NH2
modifications: linker 1-4 via mXylyl; reading uncertain; also: printed as [mXylyl(1,4)](Des-NH2)C-P-Chg-C-(2-APY-Tbg-NH2)
In the case of B5, in experiment [1], the “Avg. IC50” value was > 15000 nM.

On to {des‑NH2}-C[αMeP][dPhg]CR[Tle]-NH2 (linker 1-4 via mXylyl) [R2200], for which, in experiment [1], the “Avg. IC50” value was 470 nM.

On to {des‑NH2}-CP[Phg]CR[Tle]L[NMeR]YSE-NH2 (linker 1-4 via mXylyl) [R2216], for which the “Avg. IC50” value in experiment [1] came to 0.913 nM.

For MCNYWSPWTSEIC-NH2 (cysteine pairing not given here) [R2105], the “Avg. IC50” value in experiment [2] was determined as 4.4 nM.

For the molecule MSNYWSPWTESSA-NH2 [R2107], the “Avg. IC50” value in experiment [2] worked out at 128 nM.

As for {des‑NH2}-CP[Phg]C[Trp(5-Cl)][Tle]-NH2 (linker 1-4 via mXylyl) [R2209], in experiment [1], the “Avg. IC50” value is > 75000 nM.

B6: R2218 (peptide)
peptide: {des‑NH2}-CP[Igl]CR[Tle]-NH2
modifications: bridge 1-4; not fully specified (residue 1, bridges); printed as [mXylyl(1,4)](des-NH2)C-P-Ind-CR-Tbg-NH2
With B6, the “Avg. IC50” value in experiment [1] came to 3 nM.

As for {des‑NH2}-CP[Chg]CR-{2‑methyl‑1‑(4H-1,2,4-triazol-3-yl)propan‑1‑amine} (linker 1-4 via mXylyl) [R2197], the “Avg. IC50” value in experiment [1] came to 56.9 nM.

On to {des‑NH2}-CP[Chg]CR-{(S)‑2,2‑dimethyl‑1‑(pyridin-2-yl)propan‑1‑amine} (linker 1-4 via mXylyl) [R2196], for which, in experiment [1], the “Avg. IC50” value was found to be 35.6 nM.

For the molecule {des‑NH2}-CP[Chg]CRV-NHMe (linker 1-4 via mXylyl) [R2184], the “Avg. IC50” value in experiment [1] is 15.7 nM.

As to {des‑NH2}-CE(PEG 40 kDa)[Chg]CR[Tle]-NH2 (linker 1-4 via mXylyl) [R2213], in experiment [1], the “Avg. IC50” value is 462 nM.
